Experimental data taken from patent US20240336691A1 (PROMETHEUS BIOSCIENCES, published 2024).
Residue numbers refer to the chain shown, from its start. “And” between values parts separate entries of the source, which are not always exact repeats. Equal entries are not always repeated.

T1: TL1A in human blood (endogenous) (human, UniProt O95150 72-251, limits assumed)
T1 sequence (looked up): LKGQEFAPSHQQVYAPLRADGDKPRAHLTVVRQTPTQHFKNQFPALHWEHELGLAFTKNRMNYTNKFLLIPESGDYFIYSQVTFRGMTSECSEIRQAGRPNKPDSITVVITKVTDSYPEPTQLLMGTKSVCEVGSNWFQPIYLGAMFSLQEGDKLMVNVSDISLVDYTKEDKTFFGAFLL

T2: TL1A produced by cynomolgus monkey PBMCs in whole blood (cynomolgus monkey, UniProt G7PRK8 72-251)
T2 sequence: T1 sequence (looked up) with F39L, I78V

B1: A212 (antibody, human IgG1, V domains shown)
VH: QVQLVQSGAEVKKPGASVKVSCKASGFDIQDTYMHWVRQRPGQGLEWIGRIDPASGHTKYDPKFQVRATITTDTSTSTAYLELSSLRSEDTAVYYCARSGGLPDVWGQGTTVTVSS
VL: EIVLTQSPGTLSLSPGERATLSCRASSSVSYMYWYQQKPGQAPRPLIYATSNLASGIPDRFSGSGSGTDFTLTISRLEPEDFAVYYCQQWEGNPRTFGGGTKLEIK
B2: A147 (antibody, human IgG1, V domains shown)
VH: QVQLVQSGAEVKKPGASVKVSCKASGFDIQDTYMHWVKQRPGQGLEWMGRIEPASGHIKYDPKFQGRVTMTRDTSTSTVYMELSSLRSEDTAVYYCARSGGLPDWWGQGTTVTVSS
VL: B1 VL
B3: A219 (antibody, V domains shown)
VH: B1 VH with R38K, I48M, A68V, T72R, A79V
VL: B1 VL
B4: A213 (antibody, human IgG1, V domains shown)
VH: B1 VH with I48M, A68V, A79V, L81M
VL: B1 VL
B5: A220 (antibody, human IgG1, V domains shown)
VH: B1 VH with R38K, I48M, A68V, I70M, T72R
VL: B1 VL with L46W
B6: A217 (antibody, human IgG1, V domains shown)
VH: B2 VH with E52D, I58T, G66V, M70I, W105V
VL: B1 VL
B7: anti-TL1A antibody A219 (antibody, V domains shown)
VH: B1 VH with R38K, I48M, A68V, T72R, A79V
VL: B1 VL

These binders were tested against T1, TL1A in human blood (endogenous) (assay: cell-based or functional assay).

Row | % Inhibition at 1 nM Ig of interferon gamma release in human blood [%] | % Inhibition at 10 nM Ig of interferon gamma release in human blood [%] | Binder
1 | 46.8 | 71.2 | B1
2 | 51.3 | 72.4 | B2
3 | 59.8 | 75.2 | B3
4 | 48.6 | 69.8 | B4
5 | 36.9 | 63.2 | B5
6 | 46 | 72.2 | B6

Each binder was assayed against T2, TL1A produced by cynomolgus monkey … (assay: cell-based or functional assay).

Row | mean IC50 for the inhibition of the IFN-γ response in monkey whole blood | Binder
7 | 1.54 nM and 289 ng/mL | B7
